In publication PMC3448639:

Assays:
Conditions in all cases: glycan lost; control: wild type
[1] = cholesterol oxidase sensitivity, cholestenone by TLC
[2] = selective uptake of [3H]COE from HDL
[3] = [3H]cholesterol release from cells to HDL
[4] = flow cytometry, extracellular-domain antibody
[5] = cell surface biotinylation, immunoblot densitometry

B1: SR-BI (scavenger receptor class B type I; CLA-1): T175A (protein)
parent chain: MGCSAKARWAAGALGVAGLLCAVLGAVMIVMVPSLIKQQVLKNVRIDPSSLSFNMWKEIPIPFYLSVYFFDVMNPSEILKGEKPQVRERGPYVYREFRHKSNITFNNNDTVSFLEYRTFQFQPSKSHGSESDYIVMPNILVLGAAVMMENKPMTLKLIMTLAFTTLGERAFMNRTVGEIMWGYKDPLVNLINKYFPGMFPFKDKFGLFAELNNSDSGLFTVFTGVQNISRIHLVDKWNGLSKVDFWHSDQCNMINGTSGQMWPPFMTPESSLEFYSPEACRSMKLMYKESGVFEGIPTYRFVAPKTLFANGSIYPPNEGFCPCLESGIQNVSTCRFSAPLFLSHPHFLNADPVLAEAVTGLHPNQEAHSLFLDIHPVTGIPMNCSVKLQLSLYMKSVAGIGQTGKIEPVVLPLLWFAESGAMEGETLHTFYTQLVLMPKVMHYAQYVLLALGCVLLLVPVICQIRSQVGAGQRAARADSHSLACWGKGASDRTLWPTAAWSPPPAAVLRLCRSGSGHCWGLRSTLASFACRVATTLPVLEGLGPSLGGGTGS
For B1, the “other: plasma membrane free cholesterol redistribution” value [1] was “decreases”, the “other: transport activity” value [2] was “decreases” and the “other: free cholesterol efflux” value [3] was “decreases”. The localisation_or_trafficking [4] was “decreases” and the “localisation_or_trafficking, percent_of_wt” value [5] was “decreases, more than 50% less vs 100”.
